Data set [1] is described as follows: Encapsulation efficiency by spectrophotometry of the second aqueous solution after separation of the particles. It is filed as physicochemical. Conditions: Example 1 particles (Eudragit S100 matrix, oleic acid shell); typical detection limit 2 w %. As for the experimental part:
The encapsulation efficiency has been measured through spectrophotometry measurement by means of a Thermoscientific Genesys 180 device. The encapsulation efficiency is measured by measuring the percentage of compound of interest in the second aqueous solution after separation of the obtained particles. The percentage is a weight percentage, i.e. the mass of compound in relation to the total mass of the second aqueous solution. Given the high mass of second aqueous solution in relation to the mass of the compound of interest, only significant amounts of compound of interest are detected. A typical detection limit is 2 w %. If no compound of interest is detected in the second aqueous solution after separation of the obtained particles, it means that no to very low quantities of compound of interest are present in the second aqueous solution, and that the encapsulation can be considered to have been efficient. Detection of the compound of interest indicates less efficient encapsulation. The larger the amount of compound of interest detected, the less efficient was the encapsulation.
For the measurement of the encapsulation efficiency, the protein pork haemoglobin was used as compound of interest for encapsulation.

A short description of data set [2]: Encapsulation yield by spectrophotometry after dissolution of the particles. The format is physicochemical. The conditions noted are these: Example 1 particles; percentage of compound initially used that is detected in the particles; upper limit of detection 98%. How it is done:
A second evaluation method measures the encapsulation yield. The encapsulation yield is measured directly on the particles, and represents the percentage of the compound of interest initially used in the encapsulation method that is detected in the particles. The measurement is performed by spectrophotometry by means of a Thermoscientific Genesys 180 device after dissolution of the particles. Based on the detection limits of the device, the upper limit of encapsulation yield is noticed to be 98%, meaning that approximately 2% is not detected. This also means that an encapsulation yield of 98% indicates a very good encapsulation of the compound of interest.
For the measurement of the encapsulation yield, the protein pork haemoglobin was used as compound of interest for encapsulation. The encapsulation yield for pork haemoglobin was up to 98%, indicating a very high encapsulation yield.

With pork haemoglobin, the “encapsulation efficiency: compound of interest detected in the second aqueous solution after separation of the obtained particles” value in data set [1] is “No traces”. In data set [2], the encapsulation yield result is recorded as “up to 98%”.

(Values after patent US20230355534A1, “METHOD TO ENCAPSULATE AN AQUEOUS SOLUTION COMPRISING A COMPOUND OF INTEREST IN A MATRIX” (SECOYA TECHNOLOGIES, priority 2020, published 2023).)
